Data as given in patent US20190018005A1.

Key:
[1] = biological target: 3.3 antibody (an anti-PEG antibody, IgG type); experiment: ELISA, biotin-3.3Ab 1 µg/mL on plate coated with poly-protein G, streptavidin-HRP, OD405
[2] = biological target: 3.3 antibody (an anti-PEG antibody, IgG type); experiment: ELISA, biotin-3.3Ab 0.11 µg/mL on plate coated with poly-protein G, streptavidin-HRP, OD405
[3] = biological target: 3.3 antibody (an anti-PEG antibody, IgG type); experiment: ELISA, biotin-3.3Ab 0.33 µg/mL on plate coated with poly-protein G, streptavidin-HRP, OD405
[4] = biological target: 3.3 antibody (an anti-PEG antibody, IgG type); experiment: ELISA, biotin-3.3Ab 0.0123 µg/mL on plate coated with poly-protein G, streptavidin-HRP, OD405
[5] = biological target: 3.3 antibody (an anti-PEG antibody, IgG type); experiment: ELISA, biotin-3.3Ab 0.0371 µg/mL on plate coated with poly-protein G, streptavidin-HRP, OD405

fold antibody amount loaded vs commercial protein G-based plate [1]: 1.15 times | fold antibody amount loaded vs traditional polystyrene-based plate [1]: 1.3 times | fold antibody amount loaded vs commercial protein G-based plate [2]: 4 times | fold antibody amount loaded vs traditional polystyrene-based plate [2]: 10 times | fold antibody amount loaded vs commercial protein G-based plate [3]: 1.3 times | fold antibody amount loaded vs traditional polystyrene-based plate [3]: 2.2 times | fold antibody amount loaded vs commercial protein G-based plate [4]: 7.8 times | fold antibody amount loaded vs traditional polystyrene-based plate [4]: 14 times | fold antibody amount loaded vs commercial protein G-based plate [5]: 5.8 times | fold antibody amount loaded vs traditional polystyrene-based plate [5]: 20 times
B1: poly-protein G (soluble; HA, eight repeats of C2 domain of protein G with linkers, six histidines) (protein, not shown: small tags and cut ends)
chain: TYKLVINGKTLKGETTTEAVDAATAEKVFKQYANDNGVDGEWTYDDATKTFTVTEGGGGSGGGGSVETYKLVINGKTLKGETTTEAVDAATAEKVFKQYANDNGVDGEWTYDDATKTFTVTEGGGGSGGGGSVETYKLVINGKTLKGETTTEAVDAATAEKVFKQYANDNGVDGEWTYDDATKTFTVTEGGGGSGGGGSVETYKLVINGKTLKGETTTEAVDAATAEKVFKQYANDNGVDGEWTYDDATKTFTVTEGGGGSGGGGSVETYKLVINGKTLKGETTTEAVDAATAEKVFKQYANDNGVDGEWTYDDATKTFTVTEGGGGSGGGGSVETYKLVINGKTLKGETTTEAVDAATAEKVFKQYANDNGVDGEWTYDDATKTFTVTEGGGGSGGGGSVETYKLVINGKTLKGETTTEAVDAATAEKVFKQYANDNGVDGEWTYDDATKTFTVTEGGGGSGGGGSVETYKLVINGKTLKGETTTEAVDAATAEKVFKQYANDNGVDGEWTYDDATKTFTVTEGGGGSGGGGSVHHHHHH
